In patent US20040091953:

What was measured:
[1] = target: other hSIRT3 mutants targeting arginine residues at positions 133, 135, 139 and 158
[2] = target: fusion protein between subunit 9 of F0/F1-ATPase and DHFR
[3] = target: T1, hSIRT3-FLAG, full-length 44 kDa form
T1 chain: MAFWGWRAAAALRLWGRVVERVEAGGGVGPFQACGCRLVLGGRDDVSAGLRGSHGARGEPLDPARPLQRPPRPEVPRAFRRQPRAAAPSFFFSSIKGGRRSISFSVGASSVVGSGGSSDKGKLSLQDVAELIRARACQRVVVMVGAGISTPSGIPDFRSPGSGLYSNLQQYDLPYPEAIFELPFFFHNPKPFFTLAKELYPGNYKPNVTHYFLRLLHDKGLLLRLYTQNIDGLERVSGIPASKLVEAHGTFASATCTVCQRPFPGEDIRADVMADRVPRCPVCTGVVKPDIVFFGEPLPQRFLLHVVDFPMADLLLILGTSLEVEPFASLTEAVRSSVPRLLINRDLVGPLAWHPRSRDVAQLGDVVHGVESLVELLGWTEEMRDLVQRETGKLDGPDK

hSIRT3R99/100G-FLAG = target: T2, hSIRT3R99/100G-FLAG
T2 chain: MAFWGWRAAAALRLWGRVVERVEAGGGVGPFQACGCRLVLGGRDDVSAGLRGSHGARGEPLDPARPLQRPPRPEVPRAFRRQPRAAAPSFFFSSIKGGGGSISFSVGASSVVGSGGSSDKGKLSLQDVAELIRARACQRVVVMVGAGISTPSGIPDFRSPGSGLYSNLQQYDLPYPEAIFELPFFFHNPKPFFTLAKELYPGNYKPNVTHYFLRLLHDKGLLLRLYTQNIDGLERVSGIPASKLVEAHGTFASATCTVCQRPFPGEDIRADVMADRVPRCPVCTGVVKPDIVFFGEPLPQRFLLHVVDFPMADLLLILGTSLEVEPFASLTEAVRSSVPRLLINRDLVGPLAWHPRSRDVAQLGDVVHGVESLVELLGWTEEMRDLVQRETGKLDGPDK

B1: purified recombinant yeast MPP (protein)
chain 1: ARTDNFKLSSLANGLKVATSNTPGHFSALGLYIDAGSRFEGRNLKGCTHILDRLAFKSTEHVEGRAMAETLELLGGNYQCTSSRENLMYQASVFNQDVGKMLQLMSETVRFPKITEQELQEQKLSAEYEIDEVWMKPELVLPELLHTAAYSGETLGSPLICPRELIPSISKYYLLDYRNKFYTPENTVAAFVGVPHEKALELTEKYLGDWQSTHPPITKKVAQYTGGESCIPPAPVFGNLPELFHIQIGFEGLPIDHPDIYALATLQTLLGGGGSFSAGGPGKGMYSRLYTHVLNQYYFVENCVAFNHSYSDSGIFGISLSCIPQAAPQAVEVIAQQMYNTFANKDLRLTEDEVSRAKNQLKSSLLMNLESKLVELEDMGRQVLMHGRKIPVNEMISKIEDLKPDDISRVAEMIFTGNVNNAGNGKGRATVVMQGDRGSFGDVENVLKAYGLGNSSSSKNDSPKKKGWF
chain 2: SQIPGTRTSKLPNGLTIATEYIPNTSSATVGIFVDAGSRAENVKNNGTAHFLEHLAFKGTQNRSQQGIELEIENIGSHLNAYTSRENTVYYAKSLQEDIPKAVDILSDILTKSVLDNSAIERERDVIIRESEEVDKMYDEVVFDHLHEITYKDQPLGRTILGPIKNIKSITRTDLKDYITKNYKGDRMVLAGAGAVDHEKLVQYAQKYFGHVPKSESPVPLGSPRGPLPVFCRGERFIKENTLPTTHIAIALEGVSWSAPDYFVALATQAIVGNWDRAIGTGTNSPSPLAVAASQNGSLANSYMSFSTSYADSGLWGMYIVTDSNEHNVQLIVNEILKEWKRIKSGKISDAEVNRAKAQLKAALLLSLDGSTAIVEDIGRQVVTTGKRLSPEEVFEQVDKITKDDIIMWANYRLQNKPVSMVALGNTSTVPNVSYIEEKLNQ
[1]
  cleavage by MPP in vitro: other mutants were unaffected
[2]
  cleavage by MPP in vitro: resulted in the appearance of digestion products similar to what has been previously reported
[3]
  cleavage by MPP in vitro: led to its cleavage to a product of ˜28 KDa
hSIRT3R99/100G-FLAG
  cleavage by MPP in vitro: showed abrogation of cleavage by MPP in vitro
